# Source: article PMC4351158 (Structure (London, England : 1993), 2015)
# Where no end group is shown, it is not given here. fluorescein = fluorescein, a fluorescent label on the peptide N-terminus
# T1: DegS I179A (E. coli, UniProt P0AEE3 27-355, I179A)
# T1 sequence (looked up): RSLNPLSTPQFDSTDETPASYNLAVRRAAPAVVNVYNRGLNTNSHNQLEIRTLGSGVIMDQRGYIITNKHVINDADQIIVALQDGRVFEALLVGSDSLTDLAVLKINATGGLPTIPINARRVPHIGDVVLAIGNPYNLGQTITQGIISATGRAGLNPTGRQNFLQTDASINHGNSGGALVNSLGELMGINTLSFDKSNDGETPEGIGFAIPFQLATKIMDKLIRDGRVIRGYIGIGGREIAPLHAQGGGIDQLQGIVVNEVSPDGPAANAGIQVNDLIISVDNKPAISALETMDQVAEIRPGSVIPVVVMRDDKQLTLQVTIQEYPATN
# T2: DegS T167V/H198P (E. coli, UniProt P0AEE3 27-355, T167V | H198P)
# T2 sequence (looked up): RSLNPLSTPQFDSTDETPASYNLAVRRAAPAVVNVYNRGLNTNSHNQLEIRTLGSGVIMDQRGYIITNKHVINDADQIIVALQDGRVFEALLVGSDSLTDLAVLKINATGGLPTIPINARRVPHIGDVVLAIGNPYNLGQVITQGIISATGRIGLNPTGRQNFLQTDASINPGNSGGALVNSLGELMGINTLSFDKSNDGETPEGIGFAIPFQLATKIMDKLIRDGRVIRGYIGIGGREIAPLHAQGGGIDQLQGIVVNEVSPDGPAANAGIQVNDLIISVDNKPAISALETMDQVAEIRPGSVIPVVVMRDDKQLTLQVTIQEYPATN
# T3: DegS P161A/H198P (E. coli, UniProt P0AEE3 27-355, P161A | H198P)
# T3 sequence (looked up): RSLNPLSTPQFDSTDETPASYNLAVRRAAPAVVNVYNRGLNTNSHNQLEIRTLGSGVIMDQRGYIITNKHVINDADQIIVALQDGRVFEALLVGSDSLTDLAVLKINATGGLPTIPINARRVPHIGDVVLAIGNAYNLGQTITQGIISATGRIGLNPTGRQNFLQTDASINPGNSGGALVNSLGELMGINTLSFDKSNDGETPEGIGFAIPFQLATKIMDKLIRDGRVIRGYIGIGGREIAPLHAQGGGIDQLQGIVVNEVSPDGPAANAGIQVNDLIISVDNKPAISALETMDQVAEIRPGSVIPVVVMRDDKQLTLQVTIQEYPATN
# T4: DegS Q187A (E. coli, UniProt P0AEE3 27-355, Q187A)
# T4 sequence (looked up): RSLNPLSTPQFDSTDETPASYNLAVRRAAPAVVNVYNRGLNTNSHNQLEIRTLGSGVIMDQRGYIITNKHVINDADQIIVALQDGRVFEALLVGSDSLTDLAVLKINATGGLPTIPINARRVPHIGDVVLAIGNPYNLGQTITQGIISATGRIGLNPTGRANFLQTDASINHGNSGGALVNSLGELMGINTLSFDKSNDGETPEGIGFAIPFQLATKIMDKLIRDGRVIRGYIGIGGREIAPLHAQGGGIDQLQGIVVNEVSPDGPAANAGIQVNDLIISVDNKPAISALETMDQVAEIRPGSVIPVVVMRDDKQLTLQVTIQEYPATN
# T5: DegS T169A (E. coli, UniProt P0AEE3 27-355, T169A)
# T5 sequence (looked up): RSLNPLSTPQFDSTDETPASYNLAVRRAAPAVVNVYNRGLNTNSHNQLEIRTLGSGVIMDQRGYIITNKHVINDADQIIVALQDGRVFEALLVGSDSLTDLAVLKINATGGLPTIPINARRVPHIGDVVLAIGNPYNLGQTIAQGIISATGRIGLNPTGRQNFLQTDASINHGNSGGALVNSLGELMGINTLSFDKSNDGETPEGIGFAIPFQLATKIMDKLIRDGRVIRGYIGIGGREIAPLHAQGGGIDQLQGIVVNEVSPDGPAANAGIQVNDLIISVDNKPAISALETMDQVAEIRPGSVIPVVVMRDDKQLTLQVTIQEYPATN
# T6: DegS D221A (E. coli, UniProt P0AEE3 27-355, D221A)
# T6 sequence (looked up): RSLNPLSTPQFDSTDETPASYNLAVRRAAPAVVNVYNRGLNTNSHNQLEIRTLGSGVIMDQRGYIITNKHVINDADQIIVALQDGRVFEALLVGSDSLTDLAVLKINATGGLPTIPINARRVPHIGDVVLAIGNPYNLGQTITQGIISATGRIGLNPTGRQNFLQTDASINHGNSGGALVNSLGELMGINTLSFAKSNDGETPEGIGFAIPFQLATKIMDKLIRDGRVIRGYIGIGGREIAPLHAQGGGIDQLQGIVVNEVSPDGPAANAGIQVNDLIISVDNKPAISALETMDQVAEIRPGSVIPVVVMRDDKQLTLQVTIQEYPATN
# B1: fluorescent OMP peptide fluorescein-DNRDGNVYYF (peptide)
# peptide: fluorescein-DNRDGNVYYF
# Columns and labels:
# Test in all cases: fluorescence polarisation
# DegS I179A = molecular target: T1, DegS I179A
# DegS T167V/H198P = molecular target: T2, DegS T167V/H198P
# DegS P161A/H198P = molecular target: T3, DegS P161A/H198P
# DegS Q187A = molecular target: T4, DegS Q187A
# DegS T169A = molecular target: T5, DegS T169A
# DegS D221A = molecular target: T6, DegS D221A
binder,measurement,setting,value
B1,Kd,DegS I179A,2300 ± 400 nM
same,Kd,DegS T167V/H198P,1900 ± 700 nM
same,Kd,DegS P161A/H198P,2500 ± 400 nM
same,Kd,DegS Q187A,2300 ± 100 nM
same,Kd,DegS T169A,1800 ± 100 nM
same,Kd,DegS D221A,3200 ± 200 nM
